# According to US20050158748:
# Columns and labels:
# [1] = tested on: synthetic peptide representing C-terminus of S6 protein
# [2] = tested on: ribosomal protein S6 (in purified 40S ribosomal subunits from liver)
substance,measurement,setting,value
"recombinant p70α^S6k (Flag-tag or EE-tag version, expressed in HEK293 cells)",in vitro kinase reaction: phosphorylation of the synthetic peptide,[1],also phosphorylates this peptide but with slightly lower efficiency than observed with p70α^S6k
same,in vitro kinase reaction: phosphorylation of S6 protein in 40S subunits,[2],p70β^S6k (p70β-II isoform) phosphorylates the S6 protein in vitro nearly as efficiently as p70α^S6k
